Measured values from the supplement of paper PMC10567573.

B1: INTS3 (parent)
chain: AQLQALRQKEVDFCISLLRERFME
B2: CPOX (parent)
chain: HAPTIHFNYRYFEVEEADGNKQWW

Variants of: B1
Assay: protein stability index of a GFP-peptide fusion (GPS, HEK-293T) (PSI 1-6); higher = more stable
Conditions: c terminus: a fixed tail appended
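Further: lentivirally expressed fusions sorted by FACS into six bins by GFP to DsRed ratio, PSI derived from sequencing read proportions per bin multiplied by bin number.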

Protein stability index of substitutions, site by site:
L17: P 2.16 | T 1.8 | N 2.1
D12: N 1.59 | H 3.57 | F 1.05 | E 2.45
Q4: L 2.45
Q8: V 3.32
L18: F 3.16
A1: C 3.01 | R 2.08 | N 2.73
S16: P 2.14
V11: L 4.26
E20: K 2.09
M23: E 1.46 | P 1.79 | S 1.42
F22: D 2.24
E24: P 1.31
C14: L 2.93
Q2: C 2.98
L6: M 2.44

Variants of: B2
Assay: as above
Conditions: c terminus: a fixed tail appended

Protein stability index of substitutions, site by site:
P3: E 1.99 | K 1.93 | T 2.38 | W 1.17 | H 2.2 | Y 2.39 | F 2.6 | I 2.92 | G 2.85 | D 2.67 | R 2.69 | V 1.8 | S 1.99 | C 1.62
R10: H 2.44 | N 2.12 | W 1.99 | C 1.5 | P 2.38 | L 2.25 | F 1.77 | M 2.37 | Q 2.81 | I 2.87 | E 2.7 | T 2.55 | S 2.07
N20: C 1.87 | P 1.98 | S 2.08 | F 1.07 | L 2.12 | T 2.85 | Y 1.66 | K 3.29 | V 2.27 | W 1.88 | H 2.38 | I 2.34 | R 2.46 | Q 2.95 | D 2.12
W24: R 3.11 | V 3.1 | M 3.4 | K 3.24 | G 2.81 | L 2.66 | S 2.91 | Y 2.51 | E 3.06 | Q 2.34 | I 3.35
D18: F 3.24 | P 1.71 | A 2.6 | V 1.68 | C 1.61 | Y 1.07 | T 1.89 | E 2.63 | S 2 | H 2.86 | N 2.32 | R 2.18 | K 2.16
K21: R 2.43 | L 1.74 | F 1.6 | Q 2.67 | G 2.44 | N 2.22 | D 2.52 | W 1.89 | C 2.45 | M 1.54 | E 2.53 | A 2.44 | P 2.25
I5: M 3.15 | F 2.44 | Y 1.97 | G 2.25 | T 2.78 | H 2.82 | D 3.41 | V 2.43 | P 2.78 | R 2.64 | K 2.29 | S 2.65 | L 2.14 | W 2.47 | Q 2.7 | C 2.4 | A 2.69
T4: L 2.31 | C 2.01 | H 2.62 | Y 1.39 | A 2.38 | E 2.29 | W 2.15 | Q 2.66 | V 2.45 | R 1.8 | D 2.96 | M 1.97
H6: W 1.59 | F 1.52 | C 1.9 | P 1.89 | L 1.82 | K 2.36 | N 2.5 | Y 2.68 | S 2.31 | T 2.42 | M 1.94 | G 2.77 | A 2.19
E13: D 2.36 | P 1.86 | K 1.8 | L 1.41 | C 2.07 | H 2.09 | N 2.15 | S 1.45 | W 2.31 | M 2.22 | A 1.97
H1: T 2.91 | N 2.54 | R 3.24 | I 2.05 | P 2.62 | E 2.42 | K 2.37 | S 2.89 | M 2.15 | D 1.84 | W 2.62 | V 2.69 | C 2.15 | L 1.92 | A 2.46
A17: M 2.27 | H 1.89 | Y 1.77 | D 2.6 | E 3.01 | K 2.9 | R 2.02 | F 1.97 | L 1.96 | P 2.05 | Q 2.31 | C 2.08
N8: D 2.75 | A 2.22 | F 1.79 | V 1.57 | K 1.67 | Q 2.48 | E 2.1 | T 1.87 | W 1.52 | I 1.26 | R 2.83 | Y 2.02
G19: S 2.19 | Q 2.11 | N 2.22 | T 2.26 | Y 3.23 | I 2.07 | R 2.25 | A 2.33 | V 2.11 | D 3.04 | H 1.8
F12: N 3.05 | P 3.12 | T 3.08 | R 2.96 | D 3.51 | M 2.52 | K 3.04 | Y 2.84 | Q 2.63 | L 2.64 | A 2.49 | S 2.87 | E 2.99
V14: H 2.4 | Q 2.85 | Y 2.23 | P 2.29 | E 3.62 | S 2.44 | F 2.11 | D 3.06 | M 2.06 | G 3.15 | N 2.42 | L 2.37
Q22: W 2 | R 2.5 | P 2.56 | D 3.12 | L 2.01 | C 1.96 | F 1.67 | I 2.3 | M 1.76 | H 2.03 | N 2.19 | E 3.35 | A 1.98
W23: I 2.58 | T 2.63 | V 2.36 | A 3.94 | Y 2.33 | L 2.73 | P 3.34 | C 2.07 | H 3.06 | E 4.22 | R 3.03 | S 3.19 | M 3.04 | Q 3.38 | F 2.04
E16: Q 2.39 | Y 1.37 | P 1.83 | M 2.81 | S 2.24 | I 2.29 | F 1.44
A2: Q 3.31 | M 2.16 | R 2.73 | H 2.44 | P 2.34 | T 2.5 | W 2.02 | E 3.45 | S 2.78 | F 2.26 | K 2.38 | I 1.73 | V 2.85 | C 1.99 | N 2.46 | L 2.11
Y9: M 2.6 | D 3.46 | N 3.16 | A 2.33 | R 3.23 | T 2.79 | K 3.37 | F 2.05 | Q 2.82
E15: T 1.81 | L 2.49 | D 2.58 | S 2.49 | F 2.14 | I 2.7 | R 1.41 | K 2.56 | C 2.15 | Q 2.2 | P 2.13 | G 2.04 | H 1.5 | N 1.84 | V 1.79
Y11: N 2.98 | E 3.35 | L 2.39 | K 2.84 | P 2.98 | R 2.36 | A 3.23 | G 2.62 | F 2.26 | C 1.99 | H 3.13 | W 2.79 | V 2.12 | I 2.16 | T 3.23
F7: R 2.83 | C 2.35 | P 2.8 | D 2.89 | L 2.86 | V 2.58 | N 2.71 | H 3.35 | Y 2.48 | S 3.02 | A 3.4 | T 3.15 | E 3.06
